Source: patent US20200248174

Key:
[1] = biological target: dCas9 (SpCas9 D10A, H840A) ligated to SH3 domain via 2xGS linker
[2] = biological target: dCas9 (SpCas9 D10A, H840A) with a plurality of binding domains (SH3 domains)

B1: human AID deaminase added with SH3 ligand sequence (protein)
chain: MDSLLMNRRKFLYQFKNVRWAKGRRETYLCYVVKRRDSATSFSLDFGYLRNKNGCHVELLFLRYISDWDLDPGRCYRVTWFTSWSPCYDCARHVADFLRGNPYLSLRIFTARLYFCEDRKAEPEGLRRLHRAGVQIAIMTFKDYFYCWNTFVENHERTFKAWEGLHENSVRLSRQLRRILLPLYEVDDLRDAFRTLGLLDPPPALPPKRRR
- introduction of mutation into the targeted site of the CAN1 gene in budding yeast [1]: even when dCas9 and deaminase were linked via the binding domain, mutation was efficiently introduced into the targeted site of the CAN1 gene
- mutation introduction efficiency at the CAN1 gene in budding yeast [2]: The mutation introduction efficiency was remarkably improved by introducing a plurality of binding domains into dCas9
